Our source for the protein production values is a protein production outcome set (Wang et al. 2014).

This data set can be described thus: label from the status in PepcDB records.
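Further: failed if final PepcDB status was selected cloned or expressed and not failed if soluble or beyond.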

With “MNQEKIADLKNWMHQEKIDFTYISDPGHIAYFSGYESEPHERVLALFIAADDQSFLFTPALEVEDAEKSSWTYPVYGYLDSENPWEKIAALLNKRTQGTPRFALEKQALSLARFDQLKTYFPASDFSHDVTPLIEKLQLIKTEPEIQRLLEAGSWADVAFEIGFKAIQAGVAEQEIVAEIEYQLKRQGIRSMSFDTLVLTGKNGASPHGVPGETKIEPHDLVLFDLGVVHNGYCSDATRTVSYLEPSDFQKEIYGIVLEAQLAATEAVKPGVTAGELDDIARGVITKAGYGEYFNHRLGHGIGTTVHEYPSLVHGNDLVIEEGMCFSIEPGIYIPGKVGVRIEDCLHVTKTGSEPFTKTTKELQIIQ”, the protein production entry is listed as “failed”.

In the case of “MNQPTSETRTVVVERELPHSPEKIWRALTQPHLIEAWLMKSDFEPVAGRTFSFHADWGSVDCTLLTIEPERVLSYTWAAYGLESVVTWTLTPTPGGTLLRMEQAGFRADQEQAYRGAQQGWVRFFDSLEQVVARADEDEEGRA”, the protein production entry is “failed”.

Take “MNQRDVILDCEKKLLTAIQNNDVESLEVLLHDDLLFIIPSGETVTKETDIAAYSSGKIALRAVVPSDYIIRIIHDTVVVSVNIEIKGEYMEHTLDNTFRYLRVWKLFDGNWKVIAGSCTAIG”: the protein production result was “not failed”.

Take “MNQTKTTDDNNNNSKPDETESTTTVPEWITETINGGSFHHVDLETGTNGWASPPGNVFSLRSNNYFTTKQKSPGGDYLLSLIAVDWLKSTTKKLDHILCRPDNRVIHALETSQSRSFIFAVNFQIPGKEHYHLVLYFATEKPIPSDSILHKFINIDDDSFRNERFKVVTNVVKGPWVVKATAGKLGAFLAGKVVKCSYYRGANYFEVDVDFSISAIYSALVRLTLGYVTNLVADVGFVVEAQTEEELPERLIGGGRVCYMELSSAFLVDDGKKMGAAEGNHSEDEI”: the protein production entry is on record as “failed”.

Take “MNRLCVLGLLIGLSGSPALAAGQGESGNPPATDKERFIASLMARMSNAEKIGQLRLVSVGADHPKEALMADIRAGKVGAIFNTVTRPDIRAMQDQVRHSRLKIPLFHAYDVAHGHRTIFPISLGLAASWDPEVVARSARISALEASADGLDMSFSPMVDITRDARWGRVSEGFGEDTYLTSLLSGVMVRAYQGSNLAAPDSIMAAVKHFALYGAAEGGRDYNTVDMSLPRMFQDYLPPYKAAVDAGAGAVMVSLNTINGVPATANRWLLTDLLRQQWGFKGLTISDHGAVKELIKHGLAGNERDATRLAIQAGVDMNMNDDLYSTWLPKLLAAGEIDQADIDRACRDVLAAKYDLGLFADPYRRLGK”: the protein production result is “failed”.

With “MNRLFGNGRCLDVAIDHGVCNEPSFLDGLENMPAVVKALVDARPDAIQMNYGQADLLQDLPGKDKPALVMRIDMGNPYNRIRHRDMWAVLQNEAEPLVGALQMDAACVVVNLFMLPDEPDLFRQCVQNISRVRADCEKYGMPLMIEPLVMQPVTERGGYMVDGDADKIVTLTRLAREMGADIVKADPTTNAEDFHRVVEAARCPVLVRGGGKEDLAAVFAKSTALMRQGAMGMVYGRNIYQHANPSAVVRGLMAIIHQDASGEEAVAIYRQG”, the protein production entry is recorded as “failed”.

As for “MNRLLELSNEIFRIKTDDYTFPLFSSLHFKIILCVVITIFIAIIFKEKIKKWKYRRTFEVTTALILLSTQIFLAIWYSRFPNFYLKESLPLYPCRIAIIMAAIGLIWKKNDFAKSIAYFWGTIGAIGALMIPITNSYIFPHITYYTFFIGHYFLLIASLYLILIEEFKVKSKNVKQALIFSFIFAICAFIANYLFDANYAFLNPPNGYEILNIINVESNIITTSIFAYFIFVLGIFIMYLPFNMSDYKKDSLFECSLIKY”, the protein production result is recorded as “failed”.

As for “MNRPAMPFANTVPGFLPFLNDEKGLRQESQQRYLYTLRPFEAYLNRGGIALSGLEPAHISRFLEERAKTLHKAGMRDTAGALRIFLRYLHREGIVATDLVRSVPRGRIYRQASIPRALEHHHHHH”, the protein production entry is recorded as “failed”.

With “MNRPGVLTSPGSIPLRPRRRDPSGPASARARVEARQRVGKILVVAGWIVSLAGVAIYCVTSFAAGADADLAAILIDGAIPAARAGLAVVGVGTLTWVVGSILHLNASLDAADAERDGPAEG”, the protein production entry was “failed”.

Turning to “MNRQLLLDVLPAPAPALNNYIAGPNGQALAAAHALTAGRAIYLWGPAGCGRTHLLRGLSARPEAIYIDAARAAQSLRELAEADSTAPMPRLVAVDDVHRMDDARQAGLFALYNRWRESAATGRAFALAVSGDRAPMSLPLREDLRTRLGWDLVFRLDPLSDADKLAALTAQAAERGLQLAPEVINWMLTHHERDIRKLAALLDALDRYSLATGRPITIPLLRAMLADPHSQATLEHHHHHH”, the protein production result is “not failed”.

Consider “MNRRGGQTAFAAIARNERAIAAFIPYSSHLTDTTLITHGADLVRTWRVQGIAFESAEPELVSQRHEQLNGLWRAISCEQVALWIHCIRRKTQAGLDARYENPFCRALDASYNARLNARQAMTNEFYLTLVYRPGHAALGKRAHHGQAEVRRQLLAHVRRMDEIGSLIETTLRSHGENHEQAITVLGCETDSAGRRYSRTLTLLEFLLTGHWQPVRVPAGPVDAYLGSSRILAGAEMMELRAPTCRRYAQFIDFKEYGTHTEPGMLNALLYEDYEYVITHSFSAVGKRQALAYLQRQRAQLANVQDAAYSQIDDLAHAEDALVNGDFVIGEYHFSMMILGADPRQLRRDVSSAMTRIQERGFLATPVTLALDAAFYAQLPANWAYRSRKAMLTSRNFAGLCSFHNFYGGKRDGNPWGPALSLLSTPSGQPFYFNFHHSGLDEDCRGQMMLGNTRIIGQSGSGKTVLLNFLLCQLQKFRSADADGLTTIFFDKDRGAEICIRALDGQYLRIRDGEPTGFNPLQLPCTDRNVMFLDSLLAMLARAHDSPLTSAQHATLATAVRTVLRMPASLRRMSTLLQNITQATSEQRELVRRLGRWCRDDGAGGTGMLWWVFDNPNDCLDFSRPGNYGIDGTAFLDNAETRTPISMYLLHRMNEAMDGRRFVYLMDEAWKWIDDPAFAEFAGDQQLTIRKKNGLGVFSTQMPSSLLGARVAASLVQQCATEIYLPNPRADRAEYLDGFKCTETEYQLIRSMAEDSHLFLVKQGRQAVVAQLDLSGMDDELAILSGNARNLRCFEQALALTRERDPNDWIAVFHRLRREASAGLR”, for which the protein production result is “failed”.

Turning to “MNRSDKWQQRVAQVAYRFNQQYQNQSLELPAEVQEMPIYREWISGILAGKIASPFWEMAQPQKNQHCLDIGCGVSFLIYPWRDWQAFFYGQDVSNVARDTLNSRGSQLNSKLFKGVELGAAHQLKYTLSYFDLAIATGFSCYFPLEYWTSVLQAVKRVLKPDGHFVFDILNAAHPQAEDWAVLETYLGAEVFLEPVTEWEKIINAAGAKVVGRQPGEFFDLYKLRLEHHHHHH”, the protein production entry is on record as “failed”.

With “MNRTKKRALTVRIVKTAISVALAAVIVVAMVLVNPQLSTNKLISSLMGYNHQSVDNGNASAGDADTNYYTADYTKENIRKAEDKLYDQIASEGTVLLKNDDNELPAQKGTTFSFFSANSVDGSSLTQGYLGTPETVTLKSAFTAAGFKVNETLWNYYESGAGKDYGLATGSVNYGDGEDFRINEAPLAALRKESGLLDSVRGTTPVYVLNRVVGEGRDMPRSMYNHADKQEDKEKSYIELDSTETEIIKYLNDNYKDVILLVKSSAAMELGWVADYPNIKAVVYSQNVTNALAKVFSGEVNPSGKTVDTFAADALASPAAQNFGSYQYYDGNGNATKYNYVDYAEGIYVGYKYYETRYEDKVLGQGNAGDYDYATEVVYPFGYGLSYTDFKWSDFSVATDGDDFVATVTVKNTGDVAGKDVVELYAQTPYTDYDKRNAVEKAAVNLVGYGKTAELEPGASETVKITFGKDQLKSYDYKGAKTYILDAGQYRFTAASDANQAINNILADKGKGMADGMTAEGDKAMVSSWTPENTDVDTTTFATDDATGKAIANLFDAASDPEVTYLTRSDWTGTFPKHYGESSGEINTWGNEINCKDSDGNNASCTWKKTASDELIKQLDGNDSGSTVDKSTITDTPTFGKSNGLKVSDMRGLDYDDEQWDKLLDELTEDDYNQLVYFSGYGVDYIKSVEKPFQTDADAATGWFYGGTGKAFPSIMMLTQTWNASLAEDLGVMMGNEALLGGANGWYAPAMNIHRTPFSGRNGEYYSEDGFMSGSMASLEVKGAATKGVYSYIKHFALNDQENHRGDRPGNFSVATWSNEQAIRETYLKPFDMCMHLGDMDMKTVVKKSDGTYENKTVTTPIAKGVMTSFNRLGATWTGGNYALIQQLLRDEWGFNGLIITDNANTSKFMSPYQMLEAGADIKLLNVSEDPTGEQLDFNDAATYHYARQAMHHLLYTVANSNCMNGALPGAGFTFYNQMKVMQIAFNAICGVILALLAFFSVWRWLPGTIKRVAARKETRAAKKAARKAAKA”, the protein production result is recorded as “failed”.
